According to article PMC10765524 (2023):
Substitutions are numbered along the chain they refer to.

Experiments:
Experiment in all cases: FP
[1] = target: T1, ARPP19 S104A as used in the fluorescence polarization assay (UniProt P56211 1-112, S104A)
T1 sequence: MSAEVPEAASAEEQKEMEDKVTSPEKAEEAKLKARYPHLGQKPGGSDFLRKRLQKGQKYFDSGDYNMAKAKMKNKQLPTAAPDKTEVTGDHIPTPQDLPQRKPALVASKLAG

FAM_(67-120)S120C = FAM_(67-120)S120C (UniProt Q96E09 67-120, S120C, Alexa Fluor 488 C5 Maleimide label)
[2] = target: FAM122AID(S120C) (FAM122AID-tracer) (UniProt Q96E09 29-120, S120C, Alexa Fluor 488 C5 Maleimide label (fluorescence polarization assay))
[3] = target: T2, ARPP19(S10C) labelled with Alexa Fluor 488 (ARPP19-tracer) (UniProt P56211 1-112, S10C, Alexa Fluor 488 C5 Maleimide label)
T2 sequence: T1 sequence with S10C, A104S

Kd [1]: 326 nM
Kd (FAM_(67-120)S120C): 827 nM
Kd [2]: 837 nM
Kd [3]: 323 nM
B1: B55 loopless (B55LL) (domain or fragment)
chain: MAGAGGGNDIQWCFSQVKGAVDDDVAEADIISTVEFNHSGELLATGDKGGRVVIFQQEQENKIQSHSRGEYNVYSTFQSHEPEFDYLKSLEIEEKINKIRWLPQKNAAQFLLSTNDKTIKLWKISNGEASPRRIFANAHTYHINSISINSDYETYLSADDLRINLWHLEITDRSFNIVDIKPANMEELTEVITAAEFHPNSCNTFVYSSSKGTIRLCDMRASALCDRHSKLFEEPEDPSNRSFFSEIISSISDVKFSHSGRYMMTRDYLSVKIWDLNMENRPVETYQVHEYLRSKLCSLYENDCIFDKFECCWNGSDSVVMTGSYNNFFRMFDRNTKRDITLEASRENNKPRTVLKPRKVCASGKRKKDEISVDSLDFNKKILHTAWHPKENIIAVATTNNLYIFQDKVN
